Measurements taken from US20230303648A1 (OSE IMMUNOTHERAPEUTICS, published 2023).
Blank lines part the entries; values can stand above or below the binder they belong to.

Legend:
[1] = target: T1, CD127 recombinant protein (Histidine tagged, Sino ref 10975-H08H) (UniProt P16871 21-239); experiment: sandwich ELISA, PD-1 immobilised, molecule preincubated with His-tagged CD127, anti-His-biotin + streptavidin-peroxidase, 450 nm
T1 construct: bought; used in the CD127 sandwich ELISA; also called CD127 receptor; IL-7Ralpha; not shown: histidine tag
T1 sequence (looked up): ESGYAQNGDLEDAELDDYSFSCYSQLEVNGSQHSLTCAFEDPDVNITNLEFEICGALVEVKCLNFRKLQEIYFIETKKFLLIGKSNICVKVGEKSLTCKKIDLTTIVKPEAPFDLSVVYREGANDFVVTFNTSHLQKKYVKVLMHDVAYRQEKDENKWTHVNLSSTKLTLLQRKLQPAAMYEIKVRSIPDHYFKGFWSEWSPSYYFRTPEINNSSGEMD
Description: Colorimetry was determined at 450 nm using TMB substrate. […] C.
Colorimetry was determined at 450 nm using TMB substrate.

[2] = target: T2, recombinant human PD-1 (rPD1; Sino Biologicals, reference 10377-H08H) (human, UniProt Q15116 25-167); experiment: ELISA: PD-1 immobilised, anti-human Fc peroxidase detection
T2 construct: bought; also called hPD1; PD-1 receptor
T2 sequence (Q15116 25-167 limits assumed): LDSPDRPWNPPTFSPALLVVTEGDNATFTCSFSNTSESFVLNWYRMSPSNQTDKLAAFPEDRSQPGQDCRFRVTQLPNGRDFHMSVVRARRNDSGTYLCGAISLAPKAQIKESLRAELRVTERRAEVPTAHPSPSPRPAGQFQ
Description: A. PD-1 binding ELISA assay. Human recombinant PD-1 (rPD1) protein was immobilized, and antibodies were added at different concentrations. Revelation was performed with an anti-human Fc antibody coupled to peroxidase. Colorimetry was determined at 450 nm using TMB substrate. The anti PD-1 with 1 (anti PD-1*1 ▲ grey) or 2 anti PD-1 arms (anti PD-1*2 ◆) were tested as control. […] All constructions tested comprise a […] linker between the Fc and IL-7 domain.

[3] = target: T3, biotinylated recombinant human PD-1 (human, UniProt Q15116 25-167, limits assumed, biotinylated (site not stated)); experiment: competition ELISA: PD-L1 immobilised (competitor), biotinylated PD-1 at 0.6 µg/mL premixed with the molecule
T3 construct: used in solution in the PD-1/PD-L1 antagonist ELISA; also called PD-1 receptor
T3 sequence (Q15116 25-167 limits assumed): as above

[4] = target: T4, CD132 receptor (Sinobiological 10555-H08B) (UniProt P31785 23-254); experiment: Biacore, steady-state model: CD127 immobilised, IgG4 alone injected, then CD132 at 31.25-500 nM; baseline of CD127 with CD132 in the absence of IL-7
T4 construct: bought; analyte in the Biacore CD132 assay; also called common gamma chain
T4 sequence (looked up): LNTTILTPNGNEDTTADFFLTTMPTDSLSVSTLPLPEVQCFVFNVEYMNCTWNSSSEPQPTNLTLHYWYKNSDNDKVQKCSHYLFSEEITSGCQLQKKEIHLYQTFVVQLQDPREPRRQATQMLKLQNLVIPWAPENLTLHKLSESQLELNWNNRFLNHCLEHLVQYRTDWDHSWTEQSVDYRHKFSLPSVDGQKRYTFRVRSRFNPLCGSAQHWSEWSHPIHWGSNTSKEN

EC50 (read off the curve) [1]: ~0.05 mg/L
B1: anti PD-1 W142H bifunctional molecule with an isotype IgG1m + YTE (grey circle; no label printed on the sheet, name taken from legend paragraph 41) (other)
heavy: QIQLVQSGSELKKPGASVKVSCKASGYTFTHYAMNWVRQAPGQGLEWMGWINTNTGEPTYAQGFTGRFVFSLDTSVSTAYLQISSLKAEDTAVYYCAREREPGMDNWGQGTLVTVSSASTKGPSVFPLAPSSKSTSGGTAALGCLVKDYFPEPVTVSWNSGALTSGVHTFPAVLQSSGLYSLSSVVTVPSSSLGTQTYICNVNHKPSNTKVDKKVEPKSCDKTHTCPPCPAPELLGGPSVFLFPPKPKDTLYITREPEVTCVVVDVSHEDPEVKFNWYVDGVEVHNAKTKPREEQYASTYRVVSVLTVLHQDWLNGKEYKCKVSNKALPAPIEKTISKAKGQPREPQVYTLPPSRDELTKNQVSLTCLVKGFYPSDIAVEWESNGQPENNYKTTPPVLDSDGSFFLYSKLTVDKSRWQQGNVFSCSVMHEALHNHYTQKSLSLSPGKGGGGSGGGGSGGGGSDCDIEGKDGKQYESVLMVSIDQLLDSMKEIGSNCLNNEFNFFKRHICDANKEGMFLFRAARKLRQFLKMNSTGDFDLHLLKVSEGTTILLNCTGQVKGRKPAALGEAQPTKSLEENKSLKEQKKLNDLCFLKRLLQEIKTCHNKILMGTKEH
light: DVVMTQSPLSLPVTLGQPASISCRSSQSLVHANTNTYLEWYQQRPGQSPRLLIYKVSNRFSGVPDRFSGSGSGTDFTLKISRVEAEDVGVYYCFQGTHVPNTFGQGTKLEIKRTVAAPSVFIFPPSDEQLKSGTASVVCLLNNFYPREAKVQWKVDNALQSGNSQESVTEQDSKDSTYSLSSTLTLSKADYEKHKVYACEVTHQGLSSPVTKSFNRGEC
notes: also called anti PD-1 IL-7 W142H IgG1m + YTE

EC50 [2]: 0.238 nM
EC50 [3]: 5.01 nM
B2: anti-PD-1*1 (control construction, one anti PD-1 arm, devoid of IL-7 variant) (antibody, human IgG1, kappa, N297A)
heavy: QIQLVQSGSELKKPGASVKVSCKASGYTFTHYAMNWVRQAPGQGLEWMGWINTNTGEPTYAQGFTGRFVFSLDTSVSTAYLQISSLKAEDTAVYYCAREREPGMDNWGQGTLVTVSSASTKGPSVFPLAPSSKSTSGGTAALGCLVKDYFPEPVTVSWNSGALTSGVHTFPAVLQSSGLYSLSSVVTVPSSSLGTQTYICNVNHKPSNTKVDKKVEPKSCDKTHTCPPCPAPELLGGPSVFLFPPKPKDTLMISRTPEVTCVVVDVSHEDPEVKFNWYVDGVEVHNAKTKPREEQYASTYRVVSVLTVLHQDWLNGKEYKCKVSNKALPAPIEKTISKAKGQPREPQVYTLPPCRDELTKNQVSLWCLVKGFYPSDIAVEWESNGQPENNYKTTPPVLDSDGSFFLYSKLTVDKSRWQQGNVFSCSVMHEALHNHYTQKSLSLSPGK
chain: DKTHTCPPCPAPELLGGPSVFLFPPKPKDTLMISRTPEVTCVVVDVSHEDPEVKFNWYVDGVEVHNAKTKPREEQYASTYRVVSVLTVLHQDWLNGKEYKCKVSNKALPAPIEKTISKAKGQPREPQVYTLPPCRDELTKNQVSLWCLVKGFYPSDIAVEWESNGQPENNYKTTPPVLDSDGSFFLYSKLTVDKSRWQQGNVFSCSVMHEALHNHYTQKSLSLSPGK
light: DVVMTQSPLSLPVTLGQPASISCRSSQSLVHANTNTYLEWYQQRPGQSPRLLIYKVSNRFSGVPDRFSGSGSGTDFTLKISRVEAEDVGVYYCFQGTHVPNTFGQGTKLEIKRTVAAPSVFIFPPSDEQLKSGTASVVCLLNNFYPREAKVQWKVDNALQSGNSQESVTEQDSKDSTYSLSSTLTLSKADYEKHKVYACEVTHQGLSSPVTKSFNRGEC
notes: one-armed antibody, IgG1 N298A

EC50 [2]: 0.021 nM
B3: anti-PD1*2 (control antibody without any IL7) (antibody, IgG4, V domains shown)
VH: QIQLVQSGSELKKPGASVKVSCKASGYTFTHYAMNWVRQAPGQGLEWMGWINTNTGEPTYAQGFTGRFVFSLDTSVSTAYLQISSLKAEDTAVYYCAREREPGMDNWGQGTLVTVSS
VL: DVVMTQSPLSLPVTLGQPASISCRSSQSLVHANTNTYLEWYQQRPGQSPRLLIYKVSNRFSGVPDRFSGSGSGTDFTLKISRVEAEDVGVYYCFQGTHVPNTFGQGTKLEIKR
notes: two anti PD-1 arms

Kd [4]: 2500 nM
B4: CD127 (Sinobiological, 10975-H03H-50) (receptor, UniProt P16871 21-239, looked up)
chain: ESGYAQNGDLEDAELDDYSFSCYSQLEVNGSQHSLTCAFEDPDVNITNLEFEICGALVEVKCLNFRKLQEIYFIETKKFLLIGKSNICVKVGEKSLTCKKIDLTTIVKPEAPFDLSVVYREGANDFVVTFNTSHLQKKYVKVLMHDVAYRQEKDENKWTHVNLSSTKLTLLQRKLQPAAMYEIKVRSIPDHYFKGFWSEWSPSYYFRTPEINNSSGEMD
notes: bought; immobilised on the CM5 chip in the Biacore assays; also called CD127 receptor
